# Literature values, collected in patent US20060241020A1, “Protein tyrosine phosphatase inhibitors” (Applied Research Systems ARS Holdings N.V., priority 2002, published 2006).
# Square brackets hold non-standard residues; d marks the D form. Ends that are not written are not given here. pY = N[C@@H](Cc1ccc(OP(=O)(O)O)cc1)C(=O)O
# Molecular target: SHP1 (Homo sapiens, UniProt P29350)
# Conditions: classification of Wang Peng et al. (68); cited from earlier work
# Chain of SHP1 (P29350 whole entry): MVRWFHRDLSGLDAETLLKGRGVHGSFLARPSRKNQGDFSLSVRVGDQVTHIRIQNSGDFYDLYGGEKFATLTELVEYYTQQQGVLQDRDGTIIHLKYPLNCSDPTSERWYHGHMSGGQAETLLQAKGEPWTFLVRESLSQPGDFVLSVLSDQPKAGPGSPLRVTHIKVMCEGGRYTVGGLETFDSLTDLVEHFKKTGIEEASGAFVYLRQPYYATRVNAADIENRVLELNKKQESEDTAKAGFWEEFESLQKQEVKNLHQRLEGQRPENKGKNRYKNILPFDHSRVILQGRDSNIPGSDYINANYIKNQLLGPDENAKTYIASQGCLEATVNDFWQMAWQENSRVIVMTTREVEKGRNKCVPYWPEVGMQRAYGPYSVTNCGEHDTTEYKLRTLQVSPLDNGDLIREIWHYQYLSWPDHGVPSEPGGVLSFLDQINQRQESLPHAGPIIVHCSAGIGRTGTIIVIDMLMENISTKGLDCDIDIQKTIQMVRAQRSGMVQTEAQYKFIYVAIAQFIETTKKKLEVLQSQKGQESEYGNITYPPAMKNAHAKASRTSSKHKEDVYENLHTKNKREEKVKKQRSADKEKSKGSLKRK
substance,measurement,value
"RNNEFpYA-NH2 (RNNEF[pY]A-NH2; N-terminus assumed; SMILES C[C@H](NC(=O)[C@H](Cc1ccc(OP(=O)(O)O)cc1)NC(=O)[C@H](Cc1ccccc1)NC(=O)[C@H](CCC(=O)O)NC(=O)[C@H](CC(N)=O)NC(=O)[C@H](CC(N)=O)NC(=O)[C@@H](N)CCCNC(=N)N)C(N)=O) [SHP-1 peptide of Wang Peng et al., excluded from the invention]",Substrate class for SHP-1,class 3
